Common to all, as to conditions: both partners purified
Test [1] deals with human FGF9 (human, UniProt P31371 4-208). Description: SPR; Biacore T200; Recifercept amine-coupled on a CM5 chip (about 400 RU); hFGF injected in HBS-EP (0.01 M HEPES, 0.15 M NaCl, 3 mM EDTA, 0.05% polysorbate 20, pH 7.4) at 50 ul/min; single cycle kinetics, 5 concentrations from 0 to 16 nM; global 1:1 fit; triplicate. On the technique in general: SPR reads the build-up and loss of mass on a sensor chip optically.

The target in test [2] is T1, human FGF2 (human, UniProt P09038 143-288).
T1 construct: fibroblast growth factor 2, human, recombinant; also called hFGF2; source: recombinant; bought: Peprotech for the cell assays
The description is as above.

Test [3] concerns the target T2, human FGF20 (human, UniProt Q9NP95 1-211).
T2 construct: fibroblast growth factor 20, human, recombinant; also called hFGF20; source: recombinant
The description is as above.

In test [4] the target is T3, human FGF1 (human, UniProt P05230 16-155).
T3 construct: fibroblast growth factor 1, human, recombinant; also called hFGF1; source: recombinant; bought: Peprotech for the cell assays
The description is as above.

For test [5], the target named is T4, human FGF16 (human, UniProt O43320 1-207).
T4 construct: fibroblast growth factor 16, human, recombinant; also called hFGF16; source: recombinant
Described as above.

For test [6], the target named is human FGF8 (human, UniProt P55075 23-233, Isoform, supplier and limits are not printed. Assumed the FGF8b isoform (mature 23-215), the usual commercial recombinant form and the one that binds FGFR3c; the P55075 canonical sequence is FGF8e. Th). Description: SPR; as a1 (Recifercept amine-coupled on a CM5 chip, hFGF in HBS-EP, single cycle kinetics, 0 to 16 nM, 1:1 fit, triplicate) but with 16 nM heparin in each tested concentration (FGF8 subfamily).

Test [7] has as its target T5, human FGF17 (human, UniProt O60258 23-216).
T5 construct: fibroblast growth factor 17, human, recombinant; also called hFGF17; source: recombinant
T5 sequence (looked up): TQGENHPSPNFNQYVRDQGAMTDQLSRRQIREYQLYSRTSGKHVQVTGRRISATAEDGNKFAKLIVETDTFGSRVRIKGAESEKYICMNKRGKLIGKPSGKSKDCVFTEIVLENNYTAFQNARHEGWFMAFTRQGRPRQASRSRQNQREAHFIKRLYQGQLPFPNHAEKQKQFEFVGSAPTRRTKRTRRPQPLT
Described as above.

In test [8] the target is T6, human FGF18 (human, UniProt O76093 28-207).
T6 construct: fibroblast growth factor 18, human, recombinant; also called hFGF18; source: recombinant
T6 sequence (looked up): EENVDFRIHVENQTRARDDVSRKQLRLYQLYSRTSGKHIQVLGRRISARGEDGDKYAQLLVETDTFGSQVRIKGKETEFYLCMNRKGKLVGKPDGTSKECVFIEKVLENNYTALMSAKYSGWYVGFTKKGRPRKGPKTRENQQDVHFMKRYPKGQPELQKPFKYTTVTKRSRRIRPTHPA
The description is as above.

The values below come from PMC7769458, “In vitro and in vivo characterization of Recifercept, a soluble fibroblast growth factor receptor 3, as treatment for achondroplasia” (PLoS ONE, 2020).

T3 sequence (P05230 16-155): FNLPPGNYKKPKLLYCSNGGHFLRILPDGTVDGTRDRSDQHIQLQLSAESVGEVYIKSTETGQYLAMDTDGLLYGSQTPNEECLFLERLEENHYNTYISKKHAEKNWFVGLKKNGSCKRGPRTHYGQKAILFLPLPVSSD
T2 sequence (Q9NP95 whole entry): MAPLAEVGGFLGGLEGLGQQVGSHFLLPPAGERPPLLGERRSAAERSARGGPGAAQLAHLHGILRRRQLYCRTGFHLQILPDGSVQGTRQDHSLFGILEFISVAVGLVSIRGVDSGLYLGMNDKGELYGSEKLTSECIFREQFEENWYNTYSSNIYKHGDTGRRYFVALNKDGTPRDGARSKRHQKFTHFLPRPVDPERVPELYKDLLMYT
T1 sequence (P09038 143-288): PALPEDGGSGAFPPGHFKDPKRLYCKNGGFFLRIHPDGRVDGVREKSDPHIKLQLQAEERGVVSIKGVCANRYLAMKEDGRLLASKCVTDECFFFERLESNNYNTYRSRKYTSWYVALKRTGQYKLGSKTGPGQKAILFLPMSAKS

B1: Recifercept (receptor)
chain: ESLGTEQRVVGRAAEVPGPEPGQQEQLVFGSGDAVELSCPPPGGGPMGPTVWVKDGTGLVPSERVLVGPQRLQVLNASHEDSGAYSCRQRLTQRVLCHFSVRVTDAPSSGDDEDGEDEAEDTGVDTGAPYWTRPERMDKKLLAVPAANTVRFRCPAAGNPTPSISWLKNGREFRGEHRIGGIKLRHQQWSLVMESVVPSDRGNYTCVVENKFGSIRQTYTLDVLERSPHRPILQAGLPANQTAVLGSDVEFHCKVYSDAQPHIQWLKHVEVNGSKVGPDGTPYVTVLKTAGANTTDKELEVLSLHNVTFEDAGEYTCLAGNSIGFSHHSAWLVVLPVSLESNASMSSNT
notes: extracellular domain of human FGFR3 (P22607); also called soluble fibroblast growth factor receptor 3; modified soluble recombinant human FGFR3; source: GPEX CHO cell line, 50L single use bioreactor, media filtered, purified using chromatography
On to B1, for which the Kd in test [1] is 0.75 nM; in test [2], 3.4 nM; in test [3], 7.1 nM; in test [4] it was 0.74 nM; in test [5], 0.94 nM; in test [6] it was 4.28 nM. In addition, the equilibrium dissociation constant (Kd) in test [7] stood at 2.73 nM; in test [8] it was 4.17 nM. Further, the off-rate constant (koff) in test [1] stood at 0.00133 s⁻¹; in test [2], 0.000898 s⁻¹; in test [3], 0.000548 s⁻¹; in test [4], 0.000904 s⁻¹; in test [5], 0.00253 s⁻¹; in test [6], 0.000705 s⁻¹. In addition, the koff in test [7] was determined as 0.000964 s⁻¹; in test [8], 0.00105 s⁻¹. For the same molecule, the association rate constant (kon) in test [1] worked out at 1.83e+06 M⁻¹ s⁻¹; in test [2], 279000 M⁻¹ s⁻¹; in test [3] it was 123000 M⁻¹ s⁻¹; in test [4], 1.33e+06 M⁻¹ s⁻¹; in test [5] it was 2.8e+06 M⁻¹ s⁻¹; in test [6], 171000 M⁻¹ s⁻¹. Also, the association rate constant (kon) in test [7] turned out to be 390000 M⁻¹ s⁻¹; in test [8] it was 270000 M⁻¹ s⁻¹.

What is called Kd is a measure of binding affinity in units of concentration. A word on the koff: it is a measure of how fast the partners let go of each other. As a reminder, the kon is the second-order rate constant of association.
